Paper PMC11532496

B1: DH270 lineage intermediate I5.6 Fab (Fab, V domains shown)
VH: QVQLVQSGAEVKKPGASVKVSCKASGYTFTDYYIHWVRQAPGQGLEWMGWINPNTGRTNSAQKFQGRVTMTRDTSISTAYMELSRLRSDDTAVYYCARGGWIGLYYDSSGYPNFDYWGQGTLVTVSS
VL: QSALTQPASVSGSPGQSITISCTGTSYDVGSYNLVSWYQQHPGKAPKLMIYEVSKRPSGVSNRFSGSKSGNTASLTISGLQAEDEADYYCCSYAGSSTVVFGGGTKLTVL

Experiments:
[1] = biological target: non-stabilized CE1 design Env SOSIP trimer (CH505.M5.G458Y N386R without F14 and 2P) (HIV-1) (UniProt Q2N0S6); assay: SPR
[2] = biological target: CH848-d949 DE3 design Env SOSIP trimer (N408K/N442A) (HIV-1); assay: SPR

Row | Molecule | fold change of ka against CH505.M5.G458Y [1] | fold change of ka against the unmutated CH848-d949 trimer [2]
1 | CH235.12 Fab | 2 fold | 
2 | B1 |  | 45 fold
